Assays:
[1] = target: T1, GHRH receptor (thymus cells, 3- and 14-month old rats) (Rattus norvegicus, UniProt Q02644); test: homologous competitive radioligand binding
T1 chain: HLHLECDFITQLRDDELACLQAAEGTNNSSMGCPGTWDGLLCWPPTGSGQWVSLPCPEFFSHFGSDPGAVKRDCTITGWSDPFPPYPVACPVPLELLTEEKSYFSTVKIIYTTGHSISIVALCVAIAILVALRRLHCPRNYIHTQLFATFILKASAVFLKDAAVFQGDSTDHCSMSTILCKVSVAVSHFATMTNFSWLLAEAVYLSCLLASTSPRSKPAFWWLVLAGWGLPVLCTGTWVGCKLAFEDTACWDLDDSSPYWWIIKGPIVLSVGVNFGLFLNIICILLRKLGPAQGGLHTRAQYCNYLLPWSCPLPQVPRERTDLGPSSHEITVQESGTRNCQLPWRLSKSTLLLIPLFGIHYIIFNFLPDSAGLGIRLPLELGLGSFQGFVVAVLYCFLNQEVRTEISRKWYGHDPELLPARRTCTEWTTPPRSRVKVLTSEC

[2] = target: T2, GHRH receptor (spleen cells, 3- and 14-month old rats) (Rattus norvegicus, UniProt Q02644); test: homologous competitive radioligand binding
T2 chain: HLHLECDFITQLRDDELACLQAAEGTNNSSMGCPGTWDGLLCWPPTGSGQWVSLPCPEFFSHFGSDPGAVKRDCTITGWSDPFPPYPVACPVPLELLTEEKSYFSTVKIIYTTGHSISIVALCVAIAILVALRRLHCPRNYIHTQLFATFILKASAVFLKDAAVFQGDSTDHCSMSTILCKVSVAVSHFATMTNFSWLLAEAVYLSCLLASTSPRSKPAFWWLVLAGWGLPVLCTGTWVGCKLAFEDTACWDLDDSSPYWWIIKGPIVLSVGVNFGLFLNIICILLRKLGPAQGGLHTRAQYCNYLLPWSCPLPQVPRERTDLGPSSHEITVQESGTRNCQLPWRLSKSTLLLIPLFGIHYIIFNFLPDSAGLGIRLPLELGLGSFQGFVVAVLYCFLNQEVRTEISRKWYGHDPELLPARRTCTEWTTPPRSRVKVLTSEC

Kd [1]: 1 nM
Kd [2]: 2 nM
Binder: MPLWVFFFVILTLSNSSHCSPPPPLTLRM [GHRH 1-29]
